From paper PMC3288397 (2012) come the findings set out here.

Series [1] concerns the target Rv0535 (M. tuberculosis methylthioadenosine phosphorylase, MTAP) (Mycobacterium tuberculosis, UniProt O06401). Nature of the series: HPLC cleavage assay at […]. It counts as biochemical.
Series [2] has as its system CSC[C@H]1O[C@@H](n2cnc3c(N)ncnc32)[C@H](O)[C@@H]1O. Nature of the series: purified protein. The conditions noted are these: phosphate.
For series [3], the system named is Nc1ncnc2c1ncn2[C@@H]1O[C@H](CO)[C@@H](O)[C@H]1O. Description: purified protein. The conditions noted are these: phosphate.

Sequence of Rv0535 (M. tuberculosis methylthioadenosine phosphorylase, MTAP) (O06401 whole entry): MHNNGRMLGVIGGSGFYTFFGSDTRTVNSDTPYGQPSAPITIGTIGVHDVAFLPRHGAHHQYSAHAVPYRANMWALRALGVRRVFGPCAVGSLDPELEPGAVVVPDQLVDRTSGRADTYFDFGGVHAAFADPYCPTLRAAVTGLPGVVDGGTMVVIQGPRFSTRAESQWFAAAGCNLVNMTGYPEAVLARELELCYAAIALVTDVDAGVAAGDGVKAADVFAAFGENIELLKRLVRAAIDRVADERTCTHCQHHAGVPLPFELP

On to `Nc1ncnc2c1ncn2[C@@H]1O[C@H](CSCC[C@H](N)C(=O)O)[C@@H](O)[C@H]1O` [S-Adenosyl-L-homocysteine], for which, in series [1], the “Enzyme Activity (nmoles mg^-1 hr^-1) ^a” value was 800 ± 100 nmol/mg/h.

As a reminder, the kcat is the maximal rate divided by the concentration of active sites. What is called Km is the concentration of substrate that gives half-maximal velocity. Consider “Rv0535 (M. tuberculosis methylthioadenosine phosphorylase, MTAP) (Mycobacterium tuberculosis H37Rv)”, for which the kcat in series [2] turned out to be 0.4 ± 0.2 s⁻¹. The Km in series [3] was 1700 ± 200 µM.
